Assay [1] addresses T1, human CASPR/p190 (human, UniProt P78357 20-1384).
T1 construct: Endogenous in IMR-32 neuroblastoma cells
T1 sequence: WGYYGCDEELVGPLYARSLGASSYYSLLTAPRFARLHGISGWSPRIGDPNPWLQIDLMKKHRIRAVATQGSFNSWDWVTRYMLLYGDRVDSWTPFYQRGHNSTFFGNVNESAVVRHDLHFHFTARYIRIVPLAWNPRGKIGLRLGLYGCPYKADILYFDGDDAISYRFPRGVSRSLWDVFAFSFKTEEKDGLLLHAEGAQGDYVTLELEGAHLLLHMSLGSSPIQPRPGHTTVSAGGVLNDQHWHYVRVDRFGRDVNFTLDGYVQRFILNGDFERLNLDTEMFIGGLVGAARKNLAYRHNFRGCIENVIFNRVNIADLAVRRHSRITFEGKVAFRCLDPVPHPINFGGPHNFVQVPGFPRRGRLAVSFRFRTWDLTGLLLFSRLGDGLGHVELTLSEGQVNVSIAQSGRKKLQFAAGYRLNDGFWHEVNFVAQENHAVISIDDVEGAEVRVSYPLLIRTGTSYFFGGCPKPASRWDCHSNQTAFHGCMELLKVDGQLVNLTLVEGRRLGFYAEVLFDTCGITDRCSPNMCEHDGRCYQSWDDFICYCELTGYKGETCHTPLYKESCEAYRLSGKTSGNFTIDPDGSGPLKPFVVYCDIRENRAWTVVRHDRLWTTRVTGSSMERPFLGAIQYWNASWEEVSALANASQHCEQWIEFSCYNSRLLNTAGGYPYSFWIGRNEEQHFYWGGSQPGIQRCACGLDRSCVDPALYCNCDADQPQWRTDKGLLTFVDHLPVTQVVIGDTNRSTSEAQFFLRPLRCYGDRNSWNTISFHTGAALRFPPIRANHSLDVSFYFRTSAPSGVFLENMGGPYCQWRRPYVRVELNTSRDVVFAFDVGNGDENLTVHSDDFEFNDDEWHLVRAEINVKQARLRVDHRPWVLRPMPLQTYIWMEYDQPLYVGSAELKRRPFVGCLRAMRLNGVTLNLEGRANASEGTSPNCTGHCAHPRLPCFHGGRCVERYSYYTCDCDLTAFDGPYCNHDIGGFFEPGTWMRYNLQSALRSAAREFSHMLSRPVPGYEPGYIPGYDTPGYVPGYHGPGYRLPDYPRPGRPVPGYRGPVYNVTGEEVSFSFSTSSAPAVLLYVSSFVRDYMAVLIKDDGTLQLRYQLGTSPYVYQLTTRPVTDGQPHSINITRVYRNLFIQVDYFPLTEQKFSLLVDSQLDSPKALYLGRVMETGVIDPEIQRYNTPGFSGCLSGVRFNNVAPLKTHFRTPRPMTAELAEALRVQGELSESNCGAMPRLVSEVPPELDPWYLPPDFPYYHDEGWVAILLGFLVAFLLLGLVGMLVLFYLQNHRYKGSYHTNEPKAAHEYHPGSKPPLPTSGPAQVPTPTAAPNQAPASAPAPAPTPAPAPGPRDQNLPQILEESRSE
The assay can be described thus: immunoprecipitation of IMR-32 lysates with CASPR/p190 antibodies, immunoblotting with contactin antibodies.

Assay [2] has as its target human c-Src (human, UniProt P12931 2-536). Nature of the assay: immunoprecipitation of transfected COS7 lysates with antibodies against c-Src, immunoblotting with anti-fusion antibodies.
Assay [3] deals with T2, rat CASPR/p190 (rat, UniProt P97846 21-1381).
T2 construct: Endogenous in GH3 cells and rat brain, or expressed from pCM190R in COS7 cells; read from membrane lysates; no cleavage site stated; also called Contactin ASsociated PRotein; 190 kDa protein
T2 sequence: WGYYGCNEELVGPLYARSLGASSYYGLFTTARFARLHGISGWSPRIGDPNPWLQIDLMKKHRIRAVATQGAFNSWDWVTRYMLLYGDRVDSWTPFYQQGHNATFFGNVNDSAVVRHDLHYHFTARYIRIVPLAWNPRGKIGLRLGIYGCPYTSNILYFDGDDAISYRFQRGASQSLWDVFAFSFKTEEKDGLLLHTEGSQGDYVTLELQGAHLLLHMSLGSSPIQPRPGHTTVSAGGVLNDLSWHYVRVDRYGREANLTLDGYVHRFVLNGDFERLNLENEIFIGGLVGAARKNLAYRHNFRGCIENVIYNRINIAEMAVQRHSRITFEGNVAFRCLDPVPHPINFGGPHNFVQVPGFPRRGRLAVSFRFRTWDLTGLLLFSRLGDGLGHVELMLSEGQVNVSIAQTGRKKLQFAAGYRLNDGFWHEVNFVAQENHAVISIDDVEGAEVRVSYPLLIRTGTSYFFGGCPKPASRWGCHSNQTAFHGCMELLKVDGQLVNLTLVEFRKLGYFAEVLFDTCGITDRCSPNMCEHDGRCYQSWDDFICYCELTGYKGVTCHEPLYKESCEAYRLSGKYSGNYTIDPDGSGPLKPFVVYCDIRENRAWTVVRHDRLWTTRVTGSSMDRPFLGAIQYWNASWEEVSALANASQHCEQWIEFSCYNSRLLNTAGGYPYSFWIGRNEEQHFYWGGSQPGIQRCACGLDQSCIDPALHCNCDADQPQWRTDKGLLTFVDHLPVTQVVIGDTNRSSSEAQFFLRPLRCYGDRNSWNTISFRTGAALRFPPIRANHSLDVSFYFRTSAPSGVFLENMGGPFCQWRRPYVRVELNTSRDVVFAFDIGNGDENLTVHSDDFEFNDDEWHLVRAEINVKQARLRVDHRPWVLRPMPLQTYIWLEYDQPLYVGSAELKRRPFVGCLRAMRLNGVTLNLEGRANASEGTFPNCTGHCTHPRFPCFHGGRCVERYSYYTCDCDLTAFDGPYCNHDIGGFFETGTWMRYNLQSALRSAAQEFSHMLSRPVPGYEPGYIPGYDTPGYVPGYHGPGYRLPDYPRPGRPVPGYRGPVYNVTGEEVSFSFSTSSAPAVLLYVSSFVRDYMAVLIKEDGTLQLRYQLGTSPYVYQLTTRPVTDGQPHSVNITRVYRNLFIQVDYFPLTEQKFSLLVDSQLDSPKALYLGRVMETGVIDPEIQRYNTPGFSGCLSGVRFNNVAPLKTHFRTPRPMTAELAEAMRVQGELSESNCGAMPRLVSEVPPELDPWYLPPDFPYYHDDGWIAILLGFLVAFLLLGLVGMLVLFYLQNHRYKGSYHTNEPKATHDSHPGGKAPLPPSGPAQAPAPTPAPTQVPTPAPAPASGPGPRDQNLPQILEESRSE
Nature of the assay: co-precipitation of p190 with contactin by the RPTPβ Fc fusion from GH3 membrane extracts.

Results on 3 molecules are retold here after patent US20030120051A1 (SUGEN, published 2003).

B1: human contactin of IMR-32 neuroblastoma cells (140 kDa protein) (receptor, UniProt Q12860 21-993, looked up)
chain: EFTWYRRYGHGVSEEDKGFGPIFEEQPINTIYPEESLEGKVSLNCRARASPFPVYKWRMNNGDVDLTSDRYSMVGGNLVINNPDKQKDAGIYYCLASNNYGMVRSTEATLSFGYLDPFPPEERPEVRVKEGKGMVLLCDPPYHFPDDLSYRWLLNEFPVFITMDKRRFVSQTNGNLYIANVEASDKGNYSCFVSSPSITKSVFSKFIPLIPIPERTTKPYPADIVVQFKDVYALMGQNVTLECFALGNPVPDIRWRKVLEPMPSTAEISTSGAVLKIFNIQLEDEGIYECEAENIRGKDKHQARIYVQAFPEWVEHINDTEVDIGSDLYWPCVATGKPIPTIRWLKNGYAYHKGELRLYDVTFENAGMYQCIAENTYGAIYANAELKILALAPTFEMNPMKKKILAAKGGRVIIECKPKAAPKPKFSWSKGTEWLVNSSRILIWEDGSLEINNITRNDGGIYTCFAENNRGKANSTGTLVITDPTRIILAPINADITVGENATMQCAASFDPALDLTFVWSFNGYVIDFNKENIHYQRNFMLDSNGELLIRNAQLKHAGRYTCTAQTIVDNSSASADLVVRGPPGPPGGLRIEDIRATSVALTWSRGSDNHSPISKYTIQTKTILSDDWKDAKTDPPIIEGNMEAARAVDLIPWMEYEFRVVATNTLGRGEPSIPSNRIKTDGAAPNVAPSDVGGGGGRNRELTITWAPLSREYHYGNNFGYIVAFKPFDGEEWKKVTVTNPDTGRYVHKDETMSPSTAFQVKVKAFNNKGDGPYSLVAVINSAQDAPSEAPTEVGVKVLSSSEISVHWEHVLEKIVESYQIRYWAAHDKEEAANRVQVTSQEYSARLENLLPDTQYFIEVGACNSAGCGPPSDMIEAFTKKAPPSQPPRIISSVRSGSRYIITWDHVVALSNESTVTGYKVLYRPDGQHDGKLYSTHKHSIEVPIPRDGEYVVEVRAHSDGGDGVVSQVKIS
modifications: GPI-anchored
notes: whole, on cells; also called p140
For B1, in assay [1], the binding result was “binds”.

B2: HA-tagged rat CASPR/p190 (pCM190HA) (receptor, not shown: small tags and cut ends)
chain: T2 sequence
notes: Expressed in COS7 cells; also called tagged CASPR/p190; CASPR/p190 fusion proteins
With B2, the binding result in assay [2] is given as “binds”.

B3: rat contactin (clone F8; p140 of GH3 cells) (receptor, UniProt Q63198 21-1001, looked up)
chain: EFTWHRRYGHGVSEEDKGFGPIFEEQPINTIYPEESLEGKVSLNCRARASPFPVYKWRMNNGDVDLTNDRYSMVGGNLVINNPDKQKDAGIYYCLASNNYGMVRSTEATLSFGYLDPFPPEDRPEVKVKEGKGMVLLCDPPYHFPDDLSYRWLLNEFPVFITMDKRRFVSQTNGNLYIANVESSDRGNYSCFVSSPSITKSVFSKFIPLIPIPERTTKPYPADIVVQFKDIYTMMGQNVTLECFALGNPVPDIRWRKVLEPMPTTAEISTSGAVLKIFNIQLEDEGLYECEAENIRGKDKHQARIYVQAFPEWVEHINDTEVDIGSDLYWPCVATGKPIPTIRWLKNGYAYHKGELRLYDVTFENAGMYQCIAENAYGTIYANAELKILALAPTFEMNPMKKKILAAKGGRVIIECKPKAAPKPKFSWSKGTEWLVNSSRILIWEDGSLEINNITRNDGGIYTCFAENNRGKANSTGTLVITNPTRIILAPINADITVGENATMQCAASFDPSLDLTFVWSFNGYVIDFNKEITNIHYQRNFMLDANGELLIRNAQLKHAGRYTCTAQTIVDNSSASADLVVRGPPGPPGGLRIEDIRATSVALTWSRGSDNHSPISKYTIQTKTILSDDWKDAKTDPPIIEGNMESAKAVDLIPWMEYEFRVVATNTLGTGEPSIPSNRIKTDGAAPNVAPSDVGGGGGTNRELTITWAPLSREYHYGNNFGYIVAFKPFDGEEWKKVTVTNPDTGRYVHKDETMTPSTAFQVKVKAFNNKGDGPYSLIAVINSAQDAPSEAPTEVGVKVLSSSEISVHWKHVLEKIVESYQIRYWAGHDKEAAAHRVQVTSQEYSARLENLLPDTQYFIEVGACNSAGCGPSSDVIETFTRKAPPSQPPRIISSVRSGSRYIITWDHVVALSNESTVTGYKILYRPDGQHDGKLFSTHKHSIEVPIPRDGEYVVEVRAHSDGGDGVVSQVKISGVSTLS
modifications: GPI-anchored
notes: whole, on cells; On transfected COS7 cells, on GH3 cells, in solubilized GH3 membranes or in rat brain membranes, as the entry says; also called rat homologue of contactin; F3/F11
On to B3, for which the binding result in assay [3] is on record as “binds”.
